Laboratory results taken from publication PMC2756588.

T1: Abp1, P15891
T1 sequence (P15891 535-592, looked up): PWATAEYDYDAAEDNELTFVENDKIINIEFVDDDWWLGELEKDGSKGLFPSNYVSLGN

T2: Bbc1, P47068
T2 sequence (P47068 1-78, looked up): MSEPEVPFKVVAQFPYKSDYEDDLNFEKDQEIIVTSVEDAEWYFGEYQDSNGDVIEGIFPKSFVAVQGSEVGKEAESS

T3: Boi1, P38041
T3 sequence (P38041 1-86, looked up): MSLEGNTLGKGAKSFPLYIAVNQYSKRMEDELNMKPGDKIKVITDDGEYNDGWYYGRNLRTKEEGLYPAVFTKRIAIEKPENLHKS

T4: Boi2, P39969
T4 sequence (P39969 32-116, looked up): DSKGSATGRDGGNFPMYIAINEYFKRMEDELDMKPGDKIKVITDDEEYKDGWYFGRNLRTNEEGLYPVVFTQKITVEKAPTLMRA

T5: Bud14, P27637
T5 sequence (P27637 247-328, looked up): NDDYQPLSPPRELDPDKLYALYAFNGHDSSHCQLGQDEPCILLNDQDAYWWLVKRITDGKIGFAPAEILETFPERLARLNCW

T6: Bzz1-1, P38822
T6 sequence (P38822 478-572, looked up): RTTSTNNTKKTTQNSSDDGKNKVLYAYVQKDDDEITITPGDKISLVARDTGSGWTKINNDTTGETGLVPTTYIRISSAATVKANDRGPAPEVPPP

T7: Bzz1-2, P38822
T7 sequence (P38822 568-633, looked up): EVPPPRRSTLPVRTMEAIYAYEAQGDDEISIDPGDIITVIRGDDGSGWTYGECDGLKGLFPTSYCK

T8: Cdc25, P04821
T8 sequence (P04821 50-136, looked up): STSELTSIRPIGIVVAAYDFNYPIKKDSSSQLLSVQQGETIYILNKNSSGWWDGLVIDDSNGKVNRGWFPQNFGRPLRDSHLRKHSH

T9: Cyk3, Q07533
T9 sequence (Q07533 1-83, looked up): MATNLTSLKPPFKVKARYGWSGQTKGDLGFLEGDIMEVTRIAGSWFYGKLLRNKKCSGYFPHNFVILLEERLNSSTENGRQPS

T10: Fus1, P11710
T10 sequence (P11710 432-512, looked up): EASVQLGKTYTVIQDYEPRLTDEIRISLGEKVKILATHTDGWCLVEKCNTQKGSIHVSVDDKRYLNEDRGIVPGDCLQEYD

T11: Hof1, Q05080
T11 sequence (Q05080 590-669, looked up): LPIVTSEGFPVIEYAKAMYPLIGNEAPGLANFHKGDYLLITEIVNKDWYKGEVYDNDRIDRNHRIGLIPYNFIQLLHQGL

T12: Hse1, P38753
T12 sequence (P38753 208-285, looked up): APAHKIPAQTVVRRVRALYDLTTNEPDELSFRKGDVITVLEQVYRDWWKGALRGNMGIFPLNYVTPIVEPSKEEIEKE

T13: Lsb1, P53281
T13 sequence (P53281 45-122, looked up): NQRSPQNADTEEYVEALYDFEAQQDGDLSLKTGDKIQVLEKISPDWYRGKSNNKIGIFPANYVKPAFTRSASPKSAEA

T14: Lsb3, P43603
T14 sequence (P43603 385-451, looked up): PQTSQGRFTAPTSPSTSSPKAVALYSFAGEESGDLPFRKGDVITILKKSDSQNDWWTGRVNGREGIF

T15: Lsb4, P32793
T15 sequence (P32793 402-468, looked up): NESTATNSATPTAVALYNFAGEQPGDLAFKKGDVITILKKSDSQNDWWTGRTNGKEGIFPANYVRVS

T16: Myo5, Q04439
T16 sequence (Q04439 1072-1160, looked up): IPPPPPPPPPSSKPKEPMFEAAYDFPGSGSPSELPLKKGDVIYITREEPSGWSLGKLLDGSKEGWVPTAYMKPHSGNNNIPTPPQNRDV

T17: Nbp2, Q12163
T17 sequence (Q12163 103-180, looked up): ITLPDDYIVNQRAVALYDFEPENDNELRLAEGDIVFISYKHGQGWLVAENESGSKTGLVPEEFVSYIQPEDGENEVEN

T18: Pex13, P80667
T18 sequence (P80667 295-386, looked up): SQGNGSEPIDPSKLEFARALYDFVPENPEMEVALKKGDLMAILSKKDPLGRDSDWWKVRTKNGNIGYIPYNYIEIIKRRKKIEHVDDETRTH

T19: Pin3, Q06449
T19 sequence (Q06449 53-122, looked up): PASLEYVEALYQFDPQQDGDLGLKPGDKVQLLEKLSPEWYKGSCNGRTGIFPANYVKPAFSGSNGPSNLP

T20: Sla1-2, P32790
T20 sequence (P32790 60-140, looked up): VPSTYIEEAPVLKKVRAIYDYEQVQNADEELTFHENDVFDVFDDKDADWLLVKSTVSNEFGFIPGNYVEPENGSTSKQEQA

T21: Sla1-3, P32790
T21 sequence (P32790 344-424, looked up): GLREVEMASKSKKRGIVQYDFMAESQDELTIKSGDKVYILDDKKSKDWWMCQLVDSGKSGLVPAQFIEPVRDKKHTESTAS


Tests used:
Assay in all cases: SPOT array
Abp1, P15891 = target: T1, Abp1, P15891; conditions: median of control spots 935
Bbc1, P47068 = target: T2, Bbc1, P47068; conditions: median of control spots 796
Bem1-1, P29366 = conditions: median of control spots 4282
Sequence of Bem1-1, P29366 (P29366 55-141): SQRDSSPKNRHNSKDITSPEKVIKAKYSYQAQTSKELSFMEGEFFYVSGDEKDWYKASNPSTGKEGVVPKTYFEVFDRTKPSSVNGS

Bem1-2, P29366 = conditions: median of control spots 4347
Sequence of Bem1-2, P29366 (P29366 139-227): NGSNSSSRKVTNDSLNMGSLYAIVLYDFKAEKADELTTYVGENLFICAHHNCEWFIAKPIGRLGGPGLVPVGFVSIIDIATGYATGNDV

Boi1, P38041 = target: T3, Boi1, P38041; conditions: median of control spots 1162
Boi2, P39969 = target: T4, Boi2, P39969; conditions: median of control spots 1161
Bud14, P27637 = target: T5, Bud14, P27637; conditions: median of control spots 956
Bzz1-1, P38822 = target: T6, Bzz1-1, P38822; conditions: median of control spots 4446
Bzz1-2, P38822 = target: T7, Bzz1-2, P38822; conditions: median of control spots 4538
Cdc25, P04821 = target: T8, Cdc25, P04821; conditions: median of control spots 969
Cyk3, Q07533 = target: T9, Cyk3, Q07533; conditions: median of control spots 1451
Fus1, P11710 = target: T10, Fus1, P11710; conditions: median of control spots 1200
GST = conditions: median of control spots 978
Hof1, Q05080 = target: T11, Hof1, Q05080; conditions: median of control spots 4086
Hse1, P38753 = target: T12, Hse1, P38753; conditions: median of control spots 1727
Lsb1, P53281 = target: T13, Lsb1, P53281; conditions: median of control spots 388
Lsb3, P43603 = target: T14, Lsb3, P43603; conditions: median of control spots 406
Lsb4, P32793 = target: T15, Lsb4, P32793; conditions: median of control spots 397
Myo3, P36006 = conditions: median of control spots 468
Myo5, Q04439 = target: T16, Myo5, Q04439; conditions: median of control spots 471
Nbp2, Q12163 = target: T17, Nbp2, Q12163; conditions: median of control spots 357
Pex13, P80667 = target: T18, Pex13, P80667; conditions: median of control spots 1341
Pin3, Q06449 = target: T19, Pin3, Q06449; conditions: median of control spots 2171
Rvs167, P39743 = conditions: median of control spots 2707
Sequence of Rvs167, P39743 (P39743 419-482): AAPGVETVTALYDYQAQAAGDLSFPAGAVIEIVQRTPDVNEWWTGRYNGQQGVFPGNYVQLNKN

Sho1, P40073 = conditions: median of control spots 1148
Sequence of Sho1, P40073 (P40073 287-367): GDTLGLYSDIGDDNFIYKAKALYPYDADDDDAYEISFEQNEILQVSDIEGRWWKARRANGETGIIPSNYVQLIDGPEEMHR

Sla1-2, P32790 = target: T20, Sla1-2, P32790; conditions: median of control spots 712
Sla1-3, P32790 = target: T21, Sla1-3, P32790; conditions: median of control spots 5475

| Binder | SPOT intensity (Abp1, P15891) | SPOT intensity (Bbc1, P47068) | SPOT intensity (Bem1-1, P29366) | SPOT intensity (Bem1-2, P29366) | SPOT intensity (Boi1, P38041) | SPOT intensity (Boi2, P39969) | SPOT intensity (Bud14, P27637) | SPOT intensity (Bzz1-1, P38822) | SPOT intensity (Bzz1-2, P38822) | SPOT intensity (Cdc25, P04821) | SPOT intensity (Cyk3, Q07533) | SPOT intensity (Fus1, P11710) | SPOT intensity (GST) | SPOT intensity (Hof1, Q05080) | SPOT intensity (Hse1, P38753) | SPOT intensity (Lsb1, P53281) | SPOT intensity (Lsb3, P43603) | SPOT intensity (Lsb4, P32793) | SPOT intensity (Myo3, P36006) | SPOT intensity (Myo5, Q04439) | also measured |
| --- | --- | --- | --- | --- | --- | --- | --- | --- | --- | --- | --- | --- | --- | --- | --- | --- | --- | --- | --- | --- | --- |
| RPKRRAPPPVPKKPS | 555 | 487 | 0 | 497 | 3 | 1 | 6 | 480 | 2580 | 12 | 2 | 6 | 6 | 2 | 310 | 1450 | 298 | 129 | 491 | 232 | SPOT intensity (Nbp2, Q12163): 887; SPOT intensity (Pex13, P80667): 42; SPOT intensity (Pin3, Q06449): 9; SPOT intensity (Rvs167, P39743): 99; SPOT intensity (Sho1, P40073): 487; SPOT intensity (Sla1-2, P32790): 2; SPOT intensity (Sla1-3, P32790): 2980 |
| PKRRAPPPVPKKPSS | 648 | 354 | 0 | 389 | 2 | 1 | 1 | 650 | 3420 | 3 | 1 | 6 | 2 | 8 | 368 | 1740 | 346 | 182 | 342 | 119 | SPOT intensity (Nbp2, Q12163): 650; SPOT intensity (Pex13, P80667): 41; SPOT intensity (Pin3, Q06449): 11; SPOT intensity (Rvs167, P39743): 44; SPOT intensity (Sho1, P40073): 399; SPOT intensity (Sla1-2, P32790): 0; SPOT intensity (Sla1-3, P32790): 3500 |
| RAPPPVPKKPSSRIA | 673 | 116 | 0 | 592 | 0 | 0 | 3 | 435 | 590 | 2 | 0 | 0 | 1 | 4 | 857 | 1600 | 415 | 180 | 233 | 15 | SPOT intensity (Nbp2, Q12163): 1050; SPOT intensity (Pex13, P80667): 395; SPOT intensity (Pin3, Q06449): 37; SPOT intensity (Rvs167, P39743): 45; SPOT intensity (Sho1, P40073): 509; SPOT intensity (Sla1-2, P32790): 0; SPOT intensity (Sla1-3, P32790): 155 |
| PHNPSPFFPPPDFND | 0 | 0 | 0 | 0 | 0 | 0 | 0 | 0 | 0 | 0 | 0 | 0 | 0 | 0 | 0 | 0 | 0 | 0 | 319 | 244 | SPOT intensity (Nbp2, Q12163): 0; SPOT intensity (Pex13, P80667): 70; SPOT intensity (Pin3, Q06449): 0; SPOT intensity (Rvs167, P39743): 0; SPOT intensity (Sho1, P40073): 0; SPOT intensity (Sla1-2, P32790): 0; SPOT intensity (Sla1-3, P32790): 0 |
| KRRAPPPVPKKPSSR | 626 | 233 | 1 | 961 | 2 | 1 | 9 | 1320 | 4500 | 9 | 4 | 10 | 3 | 6 | 412 | 1850 | 389 | 150 | 454 | 144 | SPOT intensity (Nbp2, Q12163): 751; SPOT intensity (Pex13, P80667): 47; SPOT intensity (Pin3, Q06449): 14; SPOT intensity (Rvs167, P39743): 165; SPOT intensity (Sho1, P40073): 370; SPOT intensity (Sla1-2, P32790): 0; SPOT intensity (Sla1-3, P32790): 4640 |
| ERPKRRAPPPVPKKP | 673 | 282 | 0 | 279 | 0 | 0 | 0 | 160 | 791 | 4 | 0 | 0 | 0 | 0 | 57 | 326 | 188 | 89 | 358 | 180 | SPOT intensity (Nbp2, Q12163): 58; SPOT intensity (Pex13, P80667): 62; SPOT intensity (Pin3, Q06449): 11; SPOT intensity (Rvs167, P39743): 10; SPOT intensity (Sho1, P40073): 311; SPOT intensity (Sla1-2, P32790): 0; SPOT intensity (Sla1-3, P32790): 2610 |
